Measurements reported in US20240343823A1 (Ablynx, published 2024).
Read-outs that look alike come from different tables or passages of the source.

Experiments:
[1] = molecular target: T1, human GPC3 on tumor cell lines (HepG2, Huh-7, NCI-H661, MKN-45, NCI-H23, BxPC-3, NCI-H292) (human, UniProt P51654 25-554); experiment: cell-based or functional assay
[2] = molecular target: T1, human GPC3 on tumor cell lines (HepG2, …); experiment: cell-based or functional assay; remark: listed apart in the source
[3] = molecular target: T1, human GPC3 on tumor cell lines (HepG2, …); experiment: cell-based or functional assay; remark: listed apart in the source
[4] = molecular target: T1, human GPC3 on tumor cell lines (HepG2, …); experiment: cell-based or functional assay; remark: listed apart in the source
[5] = molecular target: T1, human GPC3 on tumor cell lines (HepG2, …); experiment: cell-based or functional assay; remark: listed apart in the source
[6] = molecular target: T1, human GPC3 on tumor cell lines (HepG2, …); experiment: flow cytometry on HepG2 cells
[7] = molecular target: T2, cyno GPC3 expressed on CHO Flp-In cells (cynomolgus); experiment: flow cytometry on CHO Flp-In cyno GPC3 cells
T2 construct: range 3-559; On cells; also called cyGPC3 CHO; CHO-cGPC3

[8] = molecular target: T1, human GPC3 on tumor cell lines (HepG2, …); experiment: flow cytometry on Huh-7 cells
[9] = molecular target: T1, human GPC3 on tumor cell lines (HepG2, …); experiment: flow cytometry on HepG2 and Huh-7 cells
Method: Periplasmic extracts were screened for human and cyno GPC3 binding in flow cytometry using CHO Flp-In cells (Invitrogen cat nr. K6010) expressing either human GPC3 (accession number P51654; Q25-R358, S359-H580) or cyno GPC3 (accession number P51654; Q3-R358; S359-H559), respectively. In brief, 1×10⁵ cells were incubated in 1:5 diluted periplasmic extracts for 30 min at 4° C., and then washed 3 times. As a control, the parental CHO Flp-In cell line (Invitrogen cat nr. K6010) was included. […] Samples were washed and resuspended in FACS Buffer (D-PBS (Gibco) with 10% FBS (Sigma) and 0.05% sodium azide (Merck)) supplemented with 5 nM TOPRO3 (Molecular Probes, cat nr T3605). Cell suspensions were then analyzed on a FACS Array. Gating was set on live, intact cells using forward/side scatter and TOPRO3 channel fluorescence parameters.
Variants were evaluated for binding to HepG2, Huh-7 and CHO Flip-In cyno-GPC3 cells by flow cytometry, as described in Example 1.

[10] = molecular target: T2, cyno GPC3 expressed on CHO Flp-In cells; experiment: flow cytometry on CHO Flp-In cyno GPC3 cells; remark: listed apart in the source
[11] = molecular target: T1, human GPC3 on tumor cell lines (HepG2, …); experiment: cell-based or functional assay; remark: listed apart in the source
[12] = molecular target: T1, human GPC3 on tumor cell lines (HepG2, …); experiment: cell-based or functional assay; remark: listed apart in the source

B1: A022600168 (other)
chain: DVQLVESGGGVVQPGGSLRLSCVASGYVHKINFYGWYRQAPGKEREKVAHISIGDQTDYADSAKGRFTISRDESKNTVYLQMNSLRPEDTAAYYCRALSRIWPYDYWGQGTLVTVSSGGGGSEVQLVESGGGLVQPGGSLRLSCVASGFTFSSFAMTWVRRPPGKGLEWVATITNGGVTSYRDSVKGRFTISRDNAKNTLYLEMTSLNPEDTAVYICANARRTGPRAPTDIGSYRGQGTLVTVSSGGGGSGGGGSGGGGSGGGGSGGGGSGGGGSGGGGSEVQLVESGGGLVQPGGSLRLSCVASGSIFRSVFSSSTMEWYRQPPGKKRELVARIAPGDGTNYGALYADSVKGRFTISRDDAKKTVDLQMNSLKPEDTGVYFCASGVAWGQGTLVTVSSGGGGSGGGGSGGGGSGGGGSGGGGSGGGGSGGGGSEVQLVESGGGVVQPGGSLRLSCAASGFTFRSFGMSWVRQAPGKGPEWVSSISGSGSDTLYADSVKGRFTISRDNSKNTLYLQMNSLRPEDTALYYCTIGGSLSRSSQGTLVTVSSA
HepG2 on Incucyte IC50 [1]: 0.367 nM | HepG2 on Incucyte Max % killing [1]: 103% | Huh7 on xCELLigence IC50 [1]: 0.198 nM | Huh7 on xCELLigence Max % killing [1]: 107% | HepG2 on Incucyte IC50 [2]: 0.367 nM | HepG2 on Incucyte Max % killing [2]: 103% | Huh7 on xCELLigence IC50 [2]: 0.198 nM | Huh7 on xCELLigence Max % killing [2]: 107% | HepG2 on Incucyte IC50 [3]: 0.367 nM | HepG2 on Incucyte Max % killing [3]: 103% | Huh7 on xCELLigence IC50 [3]: 0.198 nM | Huh7 on xCELLigence Max % killing [3]: 107% | IC50 (M), xCELLigence human TDC assay, Hep-G2 [4]: 7.3e-11 M | IC50 (M), xCELLigence human TDC assay, Huh-7 [4]: 2.4e-11 M | IC50 (M), xCELLigence human TDC assay, NCI-H661 [4]: 1.4e-10 M

B2: A022600102 (other)
chain: DVQLVESGGGVVQPGGSLRLSCVASGYVHKINFYGWYRQAPGKEREKVAHISIGDQTDYADSAKGRFTISRDESKNTVYLQMNSLRPEDTALYYCRALSRIWPYDYWGQGTLVTVSSAAAEVQLVESGGGLVQPGGSLRLSCVASGFTFSSFAMTWVRRPPGKGLEWVATITNGGVTSYRDSVKGRFTISRDNAKNTLYLEMTSLNPEDTAVYICANARRTGPRAPTDIGSYRGQGTLVTVSSGGGGSGGGGSGGGGSGGGGSGGGGSGGGGSGGGGSEVQLVESGGGVVQPGGSLRLSCAASGFTFRSFGMSWVRQAPGKGPEWVSSISGSGSDTLYADSVKGRFTISRDNSKNTLYLQMNSLRPEDTALYYCTIGGSLSRSSQGTLVTVSSA
IC50 (M), Incucyte human TDC HepG2-Nuclight green assay [5]: 1.72e-09 M | Max % Killing, Incucyte human TDC HepG2-Nuclight green assay [5]: 94%

B3: A022600345 (VHH)
VHH: EVQLVESGGGVVQPGGSLRLSCAASGFTFSSFAMTWVRRPPGKGLEWVATITNAGVTSYADSVKGRFTISRDNAKNTLYLQMNSLRPEDTALYICANARRTGPRAPTDIGSYRGQGTLVTVSS
EC50 [6]: 0.391 nM | fold increase in binding potency against parental A0226018C08 [7]: 2 fold | EC50 [8]: 0.276 nM | fold increase in binding potency against parental A0226018C08 [9]: 2 fold | EC50 [10]: 0.15 nM

B4: A022600351 (VHH)
VHH: EVQLVESGGGVVQPGGSLRLSCAASGFTFSSFAMTWVRRPPGKGLEWVATITNKGVTSYADSVKGRFTISRDNAKNTLYLQMNSLRPEDTALYICANARRTGPRAPTDIGSYRGQGTLVTVSS
notes: also called A0226000351
EC50 [6]: 0.431 nM | fold increase in binding potency against parental A0226018C08 [7]: 2 fold | EC50 [8]: 0.477 nM | fold increase in binding potency against parental A0226018C08 [9]: 2 fold | EC50 [10]: 0.21 nM

B5: A022600167 (other)
chain: DVQLVESGGGVVQPGGSLRLSCVASGYVHKINFYGWYRQAPGKEREKVAHISIGDQTDYADSAKGRFTISRDESKNTVYLQMNSLRPEDTAAYYCRALSRIWPYDYWGQGTLVTVSSGGGGSEVQLVESGGGLVQPGGSLRLSCVASGFTFSSFAMTWVRRPPGKGLEWVATITNGGVTSYRDSVKGRFTISRDNAKNTLYLEMTSLNPEDTAVYICANARRTGPRAPTDIGSYRGQGTLVTVSSGGGGSGGGGSGGGGSGGGGSGGGGSGGGGSGGGGSEVQLVESGGGVVQPGGSLRLSCAASGFTFRSFGMSWVRQAPGKGPEWVSSISGSGSDTLYADSVKGRFTISRDNSKNTLYLQMNSLRPEDTALYYCTIGGSLSRSSQGTLVTVSSA
HepG2 on Incucyte IC50 [1]: 1.92 nM | HepG2 on Incucyte Max % killing [1]: 98% | Huh7 on xCELLigence IC50 [1]: 8.61 nM | Huh7 on xCELLigence Max % killing [1]: 91% | HepG2 on Incucyte IC50 [2]: 1.92 nM | HepG2 on Incucyte Max % killing [2]: 98% | Huh7 on xCELLigence IC50 [2]: 8.61 nM | Huh7 on xCELLigence Max % killing [2]: 91% | HepG2 on Incucyte IC50 [3]: 1.92 nM | HepG2 on Incucyte Max % killing [3]: 98% | Huh7 on xCELLigence IC50 [3]: 8.61 nM | Huh7 on xCELLigence Max % killing [3]: 91% | IC50 (M), xCELLigence human TDC assay, Hep-G2 [4]: 9.2e-11 M | IC50 (M), xCELLigence human TDC assay, Huh-7 [4]: 4.7e-10 M | IC50 (M), xCELLigence human TDC assay, NCI-H661 [4]: 1.8e-10 M

B6: A022600103 (other)
chain: DVQLVESGGGVVQPGGSLRLSCVASGYVHKINFYGWYRQAPGKEREKVAHISIGDQTDYADSAKGRFTISRDESKNTVYLQMNSLRPEDTALYYCRALSRIWPYDYWGQGTLVTVSSGGGGSEVQLVESGGGLVQPGGSLRLSCVASGFTFSSFAMTWVRRPPGKGLEWVATITNGGVTSYRDSVKGRFTISRDNAKNTLYLEMTSLNPEDTAVYICANARRTGPRAPTDIGSYRGQGTLVTVSSGGGGSGGGGSGGGGSGGGGSGGGGSGGGGSGGGGSEVQLVESGGGVVQPGGSLRLSCAASGFTFRSFGMSWVRQAPGKGPEWVSSISGSGSDTLYADSVKGRFTISRDNSKNTLYLQMNSLRPEDTALYYCTIGGSLSRSSQGTLVTVSSA
IC50 (M), Incucyte human TDC HepG2-Nuclight green assay [11]: 5.43e-10 M | Max % Killing, Incucyte human TDC HepG2-Nuclight green assay [11]: 90% | IC50 (M), Incucyte human TDC HepG2-Nuclight green assay [5]: 2.04e-09 M | Max % Killing, Incucyte human TDC HepG2-Nuclight green assay [5]: 92% | HepG2 on Incucyte IC50 [3]: 1.23 nM | HepG2 on Incucyte Max % killing [3]: 96% | Huh7 on xCELLigence IC50 [3]: 7.11 nM | Huh7 on xCELLigence Max % killing [3]: 71%

B7: A022600027 (other)
chain: DVQLVESGGGLVQPGGSLRLSCVASGDVHKINFLGWYRQAPGKEREKVAHISIGDQTDYADSAKGRFTISRDESKNMVYLQMNSLKPEDTAVYFCRAFSRIYPYDYWGQGTLVTVSSGGGGSGGGGSGGGGSGGGGSGGGGSGGGGSGGGGSEVQLVESGGGLVQPGGSLRLSCVASGFTFSSFAMTWVRRPPGKGLEWVATITNGGVTSYRDSVKGRFTISRDNAKNTLYLEMTSLNPEDTAVYICANARRTGPRAPTDIGSYRGQGTLVTVSSGGGGSGGGGSGGGGSGGGGSGGGGSGGGGSGGGGSEVQLVESGGGVVQPGGSLRLSCAASGLTFSSYAMGWFRQAPGKERERVVSISRGGGYTYYADSVKGRFTISRDNSENTVYLQMNSLRPEDTALYYCAAARYWATGSEYEFDYWGQGTLVTVSS
IC50 (M), Incucyte human TDC HepG2-Nuclight green assay [12]: 8.6e-09 M

B8: A022600096 (other)
chain: DVQLVESGGGLVQPGGSLRLSCVASGYVHKINFYGWYRQAPGKEREKVAHISIGDQTDYADSAKGRFTISRDESKNTVYLQMNSLRPEDTALYYCRALSRIWPYDYWGQGTLVTVSSGGGGSGGGGSGGGGSGGGGSGGGGSGGGGSGGGGSEVQLVESGGGLVQPGGSLRLSCVASGFTFSSFAMTWVRRPPGKGLEWVATITNGGVTSYRDSVKGRFTISRDNAKNTLYLEMTSLNPEDTAVYICANARRTGPRAPTDIGSYRGQGTLVTVSSGGGGSGGGGSGGGGSGGGGSGGGGSGGGGSGGGGSEVQLVESGGGVVQPGGSLRLSCAASGFTFRSFGMSWVRQAPGKGPEWVSSISGSGSDTLYADSVKGRFTISRDNSKNTLYLQMNSLRPEDTALYYCTIGGSLSRSSQGTLVTVSSA
IC50 (M), Incucyte human TDC HepG2-Nuclight green assay [5]: 1.4e-09 M | Max % Killing, Incucyte human TDC HepG2-Nuclight green assay [5]: 72%
